Among the data in article PMC3897518 are stoichiometry N values, retold here.

In this test the target is VP11-His (pET-28b/VP11-His) (White spot syndrome virus (WSSV-TW strain)). In words: cross-linking; VP11-His from clear E. coli lysate held on Ni-NTA beads, washed, 0.05% glutaraldehyde in PBS passed through the column, eluted with 250 mM imidazole, SDS-PAGE and anti-His immunoblot. (In general: In western blotting, separated proteins are transferred to a membrane and probed.)

In the case of “VP11-His (pET-28b/VP11-His) (natural protein)”, the stoichiometry N (in general, the number of molecules, sites or subunits per partner or assembly) turned out to be 2.
